Reference: US20110217318A1 (MOCHIDA PHARMACEUTICAL, published 2011)

T1: human platelet membrane glycoprotein VI (GPVI) on human platelets (human, UniProt Q9HCN6 21-339)
T1 construct: whole, on cells
T1 sequence (looked up): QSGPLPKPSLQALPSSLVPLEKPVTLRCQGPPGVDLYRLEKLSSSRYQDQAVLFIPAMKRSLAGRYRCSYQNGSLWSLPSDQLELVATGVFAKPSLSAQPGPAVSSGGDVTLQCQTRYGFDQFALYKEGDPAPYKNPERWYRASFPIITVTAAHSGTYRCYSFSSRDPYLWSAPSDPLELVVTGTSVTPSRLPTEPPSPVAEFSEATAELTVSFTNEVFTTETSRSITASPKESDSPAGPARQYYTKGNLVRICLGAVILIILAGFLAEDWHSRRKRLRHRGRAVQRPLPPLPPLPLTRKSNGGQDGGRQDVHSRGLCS

T2: cynomolgus monkey GPVI on cynomolgus monkey platelets (cynomolgus monkey, UniProt A0A2K5VXN2 21-318)
T2 construct: whole, on cells; also called simian platelets
T2 sequence: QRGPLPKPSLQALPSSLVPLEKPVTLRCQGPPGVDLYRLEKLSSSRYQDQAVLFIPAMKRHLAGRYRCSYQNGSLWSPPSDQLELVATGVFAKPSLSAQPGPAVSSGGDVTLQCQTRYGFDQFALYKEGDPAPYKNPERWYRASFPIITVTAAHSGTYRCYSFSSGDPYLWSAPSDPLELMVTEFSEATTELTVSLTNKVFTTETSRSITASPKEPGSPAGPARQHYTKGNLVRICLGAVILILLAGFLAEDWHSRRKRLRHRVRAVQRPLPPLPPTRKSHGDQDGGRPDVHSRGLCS

B1: cF1232-37-2 (mouse/human chimeric F1232-37-2) (antibody, V domains shown)
VH: VQLQQSGPELVRPGESVKISCKGSGYTFTDYAIHWVKLSHAKSLEWIGVISIYYDDTNYNQKFKGKATMTVDKSSSTAYLELARLTSEDSAIYYCARRRDSSGPYAMDYWGQGTSVTVSS
VL: DIVLTQSPASLAVSLGQRATISCRASESVDSYGNSFMHWYQQKPGQPPKLLIYRASNLESGIPARFSGSGSRTDFTLTINPVEADDVATYYCQQSNEDPYTFGGGTKLEIKR
notes: V regions of F1232-37-2 on human IgG4 (Cgamma4) and human Ckappa constant regions; made in COS-1 (/COS) or CHO (/CHO); both preparations are kept under this one id; also called cF1232-37-2/COS; cF1232-37-2/CHO
B2: F1232-37-2 (antibody, V domains shown)
VH: B1 VH
VL: B1 VL
notes: mouse hybridoma monoclonal antibody; also called F1232-37-2 antibody; mouse monoclonal antibody F1232-37-2

Assays:
[1] = biological target: T1, human platelet membrane glycoprotein VI …; assay: homologous competitive binding of 125I-labelled antibody on washed human platelets, n=3, mean±S.E.
Method: (§1) ACD-A (acid citrate-dextrose) was added to the PRPs prepared from citrated blood obtained from healthy human or cynomolgus monkey to adjust the pH to 6.5. The obtained PRPs were collected by centrifugation at 2,000 rpm. The pelleted platelets were washed with HEPES Buffer (pH was adjusted to 6.5 with ACD-A). An appropriate quantity of HEPES Buffer (pH 7.4) was added to prepare platelet suspension. The number of platelets were determined with SYSMEX® F-820 (Sysmex Co.), then the above-described platelet suspension was diluted with HEPES buffer (pH 7.4) to platelet count at 6×10⁵ cells/μL.
(§2) To the diluted washed platelets, the labeled and non-labeled antibodies were added at final concentrations of 3 nM and 0-1250 nM, respectively, and mixed to obtain platelet count at 3×10⁵ cells/μL. After incubating the mixture on the ice for one hour, the reactant was passed through 30% sucrose/HEPE buffer (pH 7.4) layered column and centrifuged at 12,000 g for 5 min in order to separate the platelets and non-bound antibodies. The radioactivity of each fraction was measured using automatic gamma counter 1470 WIZARD (PerkinElmer Japan). Data was analyzed using GraphPad Prism software (Graph Pad Software, Inc.).

[2] = biological target: T3, mouse GPVI extracellular region-human Fc fusion protein (mGPVI-hFc) (mouse); assay: competition ELISA, soluble GPVI-Fc against immobilised hGPVI-hFc
T3 construct: whole fusion entry; also called GPVI-MMM-hFc; mouse GPVI-Fc
T3 sequence (chain, as listed by the source limits assumed): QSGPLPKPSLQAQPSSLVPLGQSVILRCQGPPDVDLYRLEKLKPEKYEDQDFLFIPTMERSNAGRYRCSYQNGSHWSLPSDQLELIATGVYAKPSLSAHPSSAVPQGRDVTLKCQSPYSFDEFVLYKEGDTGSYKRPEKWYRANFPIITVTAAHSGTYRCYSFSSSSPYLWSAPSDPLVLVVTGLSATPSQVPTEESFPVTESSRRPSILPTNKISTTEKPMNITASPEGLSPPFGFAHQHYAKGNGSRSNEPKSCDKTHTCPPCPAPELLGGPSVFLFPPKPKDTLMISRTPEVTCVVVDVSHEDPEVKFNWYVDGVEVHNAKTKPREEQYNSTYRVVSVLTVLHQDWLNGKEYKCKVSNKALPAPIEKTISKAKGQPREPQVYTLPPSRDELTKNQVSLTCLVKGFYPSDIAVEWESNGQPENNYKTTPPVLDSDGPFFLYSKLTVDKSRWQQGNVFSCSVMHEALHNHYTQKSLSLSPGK
Method: To the plate, wherein hGPVI-hFc has been immobilized at 4 μg/mL, a mixture of peroxidase-labeled F1232-37-2 or cF1232-37-2 by the method described in EXAMPLE 14, and hGPVI-hFc, mGPVI-hFc, hGPVI-mL3-hFc, wherein these were prepared in EXAMPLE 7, or hGPVI-K59E-hFc (a fusion protein consisting of one amino acid mutated human GPVI extracellular region, wherein lysine at 59 of human GPVI is substituted for glutamic acid, and human Fc), which has been prepared by the same method as that of EXAMPLE 1 and diluted with 0.1% BSA/PBS was added, and the plate was incubated at 37° C. for one hour. After incubation, the mixture was developed using TMB solution, and absorbance at 450 nm was measured.

[3] = biological target: T2, cynomolgus monkey GPVI on cynomolgus …; assay: homologous competitive binding of 125I-labelled antibody on washed cynomolgus monkey platelets, n=3, mean±S.E.
Method: as §1, §2

[4] = biological target: T4, human GPVI extracellular region-human Fc fusion protein (hGPVI-hFc) (human); assay: ELISA on immobilised hGPVI-hFc; ++ = absorbance 1.0 to 2.0
T4 construct: Expressed in COS-1, purified on Protein A; also called GPVI-HHH-hFc; hGPVIHHH-hFc
Method: The hGPVI-hFc prepared by EXAMPLE 1B was diluted with D-PBS to 2 μg/mL and added to immunoplate (Maxisorp, NUNC) at 50 μL/well. After incubation at 37° C. for one hour, the well was washed five times with ion-exchanged water, and D-PBS (pH7.4) containing 2% STABILGUARD® (chemical solutions for stabilizing biological molecules) (Surmodics) was added to each well in 100 μL for blocking. Next, culture supernatant was added to each well and incubated at 37° C. for one hour. After incubation, the well was washed three times with the saline containing 0.05% TWEEN®20 (Polyoxyethylene (20) sorbitan monolaurate). […] After incubation at 37° C. for one hour, washing in a similar manner was performed five times and TMB solution (BIOFX® (reagents for scientific or medical research) was added to each well. After ten minutes at room temperature, the reaction was terminated with 0.5 M sulfuric acid solution. Subsequently, absorbance at 450 nm was measured with the plate spectrophotometer (Multiscan JX, Dainippon Pharmaceutical). As a result, the cell whose culture supernatant reacted to hGPVI-hFc was selected and a cloning with limiting dilution method (“The Introduction to Monoclonal Antibody Experimental Procedure” written by Tamie Andoh and Takeshi Chiba (Kodansha, p97)) was performed. […]

[5] = biological target: T4, human GPVI extracellular region-human …; assay: SPR BIACORE 3000 as in Example 5 (the reference itself)

Binder	Kd [1] [nM]	binding result [2]	Kd [3] [nM]	absorbance [4] [od]	KD (Relative value) [5]
B1	17	no binding	20		
B2		no binding		1 to 2	1 relative to F1232-37-2 = 1
